The values that follow come from paper PMC3865061.

The target of assay [1] is T1, Influenza A virus matrix protein M1 (full-length), strain A/Puerto Rico/8/34 (H1N1) (Influenza A virus A/Puerto Rico/8/34 (H1N1)), P03485.
T1 chain: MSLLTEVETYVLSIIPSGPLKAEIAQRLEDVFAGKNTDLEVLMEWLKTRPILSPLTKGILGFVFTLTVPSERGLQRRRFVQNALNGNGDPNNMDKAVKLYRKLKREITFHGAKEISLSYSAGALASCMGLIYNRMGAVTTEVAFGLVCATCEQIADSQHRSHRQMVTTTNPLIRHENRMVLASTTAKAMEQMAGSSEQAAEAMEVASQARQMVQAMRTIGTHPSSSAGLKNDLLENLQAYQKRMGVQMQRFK
The experiment in a line: AUC. Particulars: remark: other sources report otherwise.

Assay [2] concerns the target T1, Influenza A virus matrix protein M1 …. In words: SAXS. Particulars: remark: other sources report otherwise.

B1: Influenza A virus matrix protein M1 (full-length), strain A/Puerto Rico/8/34 (H1N1), P03485 1-252 (natural protein)
chain: MSLLTEVETYVLSIIPSGPLKAEIAQRLEDVFAGKNTDLEVLMEWLKTRPILSPLTKGILGFVFTLTVPSERGLQRRRFVQNALNGNGDPNNMDKAVKLYRKLKREITFHGAKEISLSYSAGALASCMGLIYNRMGAVTTEVAFGLVCATCEQIADSQHRSHRQMVTTTNPLIRHENRMVLASTTAKAMEQMAGSSEQAAEAMEVASQARQMVQAMRTIGTHPSSSAGLKNDLLENLQAYQKRMGVQMQRFK
In assay [1], B1 had a volume percent of large associates (volume percent) of 2 to 3. Further, the volume fraction of clusters (volume fraction) in assay [2] worked out at 0.03.
